For 4 molecules, IC50 results are on record in patent US6350731.

Where no end group is shown, it is not given here.

For one assay, the target named is Rb 78. The assay can be described thus: competitive ELISA on antiserum Rb 78; coated antigen not given. On the technique in general: In an ELISA, binding on a coated surface is turned into a signal by an enzyme label.
The next assay deals with 2 DMB. Put plainly: CELIA on monoclonal 2 DMB; coated antigen not given.
The next assay deals with 4 DMB. The assay can be described thus: CELIA on monoclonal 4 DMB; coated antigen not given.
A further assay addresses 9 DB-1. Put plainly: CELIA on monoclonal 9 DB-1; coated antigen not given.
The target in another assay is 13 DB-1. Put plainly: CELIA on monoclonal 13 DB-1; coated antigen not given.
For a further assay, the target named is 17 DB-1. The assay can be described thus: CELIA on monoclonal 17 DB-1; coated antigen not given.
The target of a further assay is 19 DB-1. The assay can be described thus: CELIA on monoclonal 19 DB-1; coated antigen not given.
A further assay concerns the target 21 DB-1. Put plainly: CELIA on monoclonal 21 DB-1; coated antigen not given.
Another assay deals with 22 DB-1. Put plainly: CELIA on monoclonal 22 DB-1; coated antigen not given.
Another assay addresses Rb 37. Put plainly: competitive ELISA on antiserum Rb 37; coated antigen not given.
In the next assay the target is Rb 38. The assay can be described thus: competitive ELISA on antiserum Rb 38; coated antigen not given.
The target of a further assay is Rb 39. The assay can be described thus: competitive ELISA on antiserum Rb 39; coated antigen not given.
The target of a further assay is Rb 65. The assay can be described thus: competitive ELISA on antiserum Rb 65; coated antigen not given.
For another assay, the target named is Rb 66. Put plainly: competitive ELISA on antiserum Rb 66; coated antigen not given.
A further assay deals with Rb 109. The assay can be described thus: competitive ELISA on antiserum Rb 109; coated antigen not given.
A further assay concerns the target Rb 112. Put plainly: competitive ELISA on antiserum Rb 112; coated antigen not given.
For another assay, the target named is 10 DB-1. The assay can be described thus: CELIA on monoclonal 10 DB-1; coated antigen not given.
For a further assay, the target named is 12 DB-1. Put plainly: CELIA on monoclonal 12 DB-1; coated antigen not given.
In another assay the target is Rb 67. Put plainly: competitive ELISA on antiserum Rb 67; coated antigen not given.
For another assay, the target named is Rb 68. The assay can be described thus: competitive ELISA on antiserum Rb 68; coated antigen not given.

As a reminder, the IC50 is the concentration needed to halve the response being measured. RKIEIVRKKPIFKKATV [GP21a] had a half-inhibitory concentration (IC50) in the assay with Rb 78 of 100 nM.
Consider Ac-ISRRLIDRTNANFLVWPPC [GP10], for which the 50% inhibitory concentration (IC50) was 2000 nM with 2 DMB; 150 nM with 4 DMB; 1200 nM in the assay with 9 DB-1; 400 nM in the assay with 13 DB-1; 3000 nM with 17 DB-1; 18 nM with 19 DB-1. The IC50 with 21 DB-1 amounted to 30 nM; with 22 DB-1 it was 25 nM; with Rb 37 it was 10 nM; with Rb 38, 74 nM; in the assay with Rb 39, 2 nM; in the assay with Rb 65, 3 nM. For the same molecule, the half-inhibitory concentration (IC50) in the assay with Rb 66 was under 2 nM; with Rb 109, 4 nM; with Rb 112, 3 nM.
With Ac-ISRRLIDRTNANFLC (not fully specified; printed as Ac-25I-S-R-R-L-I-D-R-T-N-A-N-F-L38-C) [GP4], the half-maximal inhibitory concentration (IC50) with 2 DMB is 2000 nM; with 4 DMB, 150 nM; with 9 DB-1, 1000 nM; with 10 DB-1 it was 400 nM; in the assay with 12 DB-1, 2000 nM; with 13 DB-1 it was 200 nM. In addition, the IC50 in the assay with 17 DB-1 was 180 nM; in the assay with 19 DB-1, 18 nM; with 21 DB-1, 18 nM; with 22 DB-1, 20 nM; with Rb 37, 20 nM; with Rb 38 it was 150 nM. Moreover, the IC50 with Rb 39 was 2 nM; with Rb 65 it was 3 nM; with Rb 66, under 2 nM; in the assay with Rb 109, 2 nM; in the assay with Rb 112, 2 nM.
Ac-RKIEIVRKKC [GP8]: the results for the half-maximal inhibitory concentration (IC50) with Rb 67 and with Rb 68 were 2 nM and under 2 nM, respectively.
